Results: patent publication US20250243289A1 (PROMETHEUS BIOSCIENCES, published 2025)
Where “and” joins values, the source holds several entries; their conditions need not be identical. Equal values may be shown once.

T1: recombinant TL1A antigen (UniProt O95150 72-251, limits assumed)
T1 sequence (looked up): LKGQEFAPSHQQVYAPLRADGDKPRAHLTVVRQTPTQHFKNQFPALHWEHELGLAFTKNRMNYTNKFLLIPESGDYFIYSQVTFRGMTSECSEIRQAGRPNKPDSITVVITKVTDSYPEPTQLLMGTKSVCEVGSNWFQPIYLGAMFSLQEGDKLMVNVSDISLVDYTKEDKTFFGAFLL

T2: recombinant human TL1A protein (tumor necrosis factor-like cytokine 1A) (human, UniProt O95150 72-251)
T2 sequence (looked up): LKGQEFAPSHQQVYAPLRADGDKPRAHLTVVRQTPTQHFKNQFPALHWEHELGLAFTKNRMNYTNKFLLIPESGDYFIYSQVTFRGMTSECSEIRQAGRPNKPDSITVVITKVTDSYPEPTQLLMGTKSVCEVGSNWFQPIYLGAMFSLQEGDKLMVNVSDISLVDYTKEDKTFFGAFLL

T3: recombinant cynomolgus monkey TL1A protein (cynomolgus monkey, UniProt G7PRK8 72-251)
T3 sequence: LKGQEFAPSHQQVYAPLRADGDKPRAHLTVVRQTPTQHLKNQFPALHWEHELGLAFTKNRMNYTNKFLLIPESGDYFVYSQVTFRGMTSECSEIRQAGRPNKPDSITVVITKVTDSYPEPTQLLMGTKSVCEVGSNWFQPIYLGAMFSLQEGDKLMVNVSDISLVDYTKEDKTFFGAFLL

T4: human TL1A, endogenous in human whole blood (human, UniProt O95150 72-251, limits assumed)
T4 sequence (looked up): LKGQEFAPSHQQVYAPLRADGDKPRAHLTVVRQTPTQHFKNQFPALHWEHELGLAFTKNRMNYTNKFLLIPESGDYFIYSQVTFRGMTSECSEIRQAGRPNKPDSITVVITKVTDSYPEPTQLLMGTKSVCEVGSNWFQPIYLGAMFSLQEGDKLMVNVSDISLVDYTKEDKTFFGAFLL


Assays:
[1] = biological target: T1, recombinant TL1A antigen; experiment: ELISA titration against recombinant TL1A antigen
[2] = biological target: T2, recombinant human TL1A protein (tumor …); experiment: cell-based or functional assay
[3] = biological target: T3, recombinant cynomolgus monkey TL1A …; experiment: cell-based or functional assay
[4] = biological target: monkey TL1A in the in vitro monkey whole blood IFN-γ assay (monkey); experiment: cell-based or functional assay
[5] = biological target: T4, human TL1A, endogenous in human whole …; experiment: cell-based or functional assay

Binder	% Inhibition at 1 nM Ig (interferon gamma release in human blood) [5] [%]	% Inhibition at 10 nM Ig (interferon gamma release in human blood) [5] [%]	further results
anti-TL1A antibody with heavy chain SEQ ID NO: 379 (S228P, L235E) and light chain SEQ ID NO: 381 (antibody, human IgG4 S228P, kappa, IgG4) heavy: not shown light: EIVLTQSPGTLSLSPGERATLSCRASSSVSYMYWYQQKPGQAPRPLIYATSNLASGIPDRFSGSGSGTDFTLTISRLEPEDFAVYYCQQWEGNPRTFGGGTKLEIKRTVAAPSVFIFPPSDEQLKSGTASVVCLLNNFYPREAKVQWKVDNALQSGNSQESVTEQDSKDSTYSLSSTLTLSKADYEKHKVYACEVTHQGLSSPVTKSFNRGEC			EC50 [1]: 0.324 nM
anti-TL1A antibody A219 (antibody, V domains shown) VH: QVQLVQSGAEVKKPGASVKVSCKASGFDIQDTYMHWVKQRPGQGLEWMGRIDPASGHTKYDPKFQVRVTITRDTSTSTVYLELSSLRSEDTAVYYCARSGGLPDVWGQGTTVTVSS VL: EIVLTQSPGTLSLSPGERATLSCRASSSVSYMYWYQQKPGQAPRPLIYATSNLASGIPDRFSGSGSGTDFTLTISRLEPEDFAVYYCQQWEGNPRTFGGGTKLEIK			inhibition of human TL1A-induced caspase activation in TF-1 cells (IC50) [2]: 0.27 nM; inhibition of monkey TL1A-induced caspase activation in TF-1 cells (IC50) [3]: 0.59 nM; inhibition of the IFN-γ response in monkey whole blood stimulated with immune complex, IL-12 and IL-18 (mean IC50) [3]: 1.54 nM and 289 ng/ml; IC50 of the in vitro monkey whole blood IFN-γ release assay [4]: 1.54 nM and 289 ng/mL
A147 (antibody, human IgG1, V domains shown) VH: QVQLVQSGAEVKKPGASVKVSCKASGFDIQDTYMHWVKQRPGQGLEWMGRIEPASGHIKYDPKFQGRVTMTRDTSTSTVYMELSSLRSEDTAVYYCARSGGLPDWWGQGTTVTVSS VL: EIVLTQSPGTLSLSPGERATLSCRASSSVSYMYWYQQKPGQAPRPLIYATSNLASGIPDRFSGSGSGTDFTLTISRLEPEDFAVYYCQQWEGNPRTFGGGTKLEIK	51.3	72.4	
A212 (antibody, human IgG1, V domains shown) VH: QVQLVQSGAEVKKPGASVKVSCKASGFDIQDTYMHWVRQRPGQGLEWIGRIDPASGHTKYDPKFQVRATITTDTSTSTAYLELSSLRSEDTAVYYCARSGGLPDVWGQGTTVTVSS VL: EIVLTQSPGTLSLSPGERATLSCRASSSVSYMYWYQQKPGQAPRPLIYATSNLASGIPDRFSGSGSGTDFTLTISRLEPEDFAVYYCQQWEGNPRTFGGGTKLEIK	46.8	71.2	
A213 (antibody, human IgG1, V domains shown) VH: QVQLVQSGAEVKKPGASVKVSCKASGFDIQDTYMHWVRQRPGQGLEWMGRIDPASGHTKYDPKFQVRVTITTDTSTSTVYMELSSLRSEDTAVYYCARSGGLPDVWGQGTTVTVSS VL: EIVLTQSPGTLSLSPGERATLSCRASSSVSYMYWYQQKPGQAPRPLIYATSNLASGIPDRFSGSGSGTDFTLTISRLEPEDFAVYYCQQWEGNPRTFGGGTKLEIK	48.6	69.8	
A217 (antibody, human IgG1, V domains shown) VH: QVQLVQSGAEVKKPGASVKVSCKASGFDIQDTYMHWVKQRPGQGLEWMGRIDPASGHTKYDPKFQVRVTITRDTSTSTVYMELSSLRSEDTAVYYCARSGGLPDVWGQGTTVTVSS VL: EIVLTQSPGTLSLSPGERATLSCRASSSVSYMYWYQQKPGQAPRPLIYATSNLASGIPDRFSGSGSGTDFTLTISRLEPEDFAVYYCQQWEGNPRTFGGGTKLEIK	46	72.2	

More lines, main results first:

% Inhibition at 1 nM Ig (interferon gamma release in human blood) [5] [%]	% Inhibition at 10 nM Ig (interferon gamma release in human blood) [5] [%]	Binder	further results
59.8	75.2	A219 (antibody, V domains shown) VH: QVQLVQSGAEVKKPGASVKVSCKASGFDIQDTYMHWVKQRPGQGLEWMGRIDPASGHTKYDPKFQVRVTITRDTSTSTVYLELSSLRSEDTAVYYCARSGGLPDVWGQGTTVTVSS VL: EIVLTQSPGTLSLSPGERATLSCRASSSVSYMYWYQQKPGQAPRPLIYATSNLASGIPDRFSGSGSGTDFTLTISRLEPEDFAVYYCQQWEGNPRTFGGGTKLEIK	
36.9	63.2	A220 (antibody, human IgG1, V domains shown) VH: QVQLVQSGAEVKKPGASVKVSCKASGFDIQDTYMHWVKQRPGQGLEWMGRIDPASGHTKYDPKFQVRVTMTRDTSTSTAYLELSSLRSEDTAVYYCARSGGLPDVWGQGTTVTVSS VL: EIVLTQSPGTLSLSPGERATLSCRASSSVSYMYWYQQKPGQAPRPWIYATSNLASGIPDRFSGSGSGTDFTLTISRLEPEDFAVYYCQQWEGNPRTFGGGTKLEIK	
